Laboratory results reported in the supplement of paper PMC9170038.

System: MS2 coat protein
Assay: apparent KD of MS2 coat protein; designed switch direction (-1 OFF switch, 1 ON switch): 1; higher = weaker reporter binding
Procedure, shortened: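 Normalised cluster fluorescence was curve-fitted, and each design's median over clusters is its apparent KD. Before this, SNAP-549-labelled MS2 coat protein was titrated from 0.7 or 1.5 nM, doubling to 3 µM, over RNA switches transcribed on Illumina chips by stalled E. coli RNA polymerase. Titrations had no input, 200 uM small-molecule ligand, or an oligonucleotide input, and steps lasted 0.8–1.5 h (lowest) to 10–20 min (highest).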

[1] = input ligand: microRNA oligo, concentration not stated
[2] = Eterna round: R95, input ligand: microRNA oligo, concentration not stated
[3] = Eterna round: R95, input ligand: FMN 200 uM
[4] = Eterna round: R95, input ligand: none

Sequence	apparent KD of MS2 coat protein (input ligand: FMN 200 uM) [nM]	apparent KD of MS2 coat protein [1] [nM]	apparent KD of MS2 coat protein (input ligand: none) [nM]	apparent KD of MS2 coat protein [2] [nM]	apparent KD of MS2 coat protein [3] [nM]	apparent KD of MS2 coat protein [4] [nM]
GUGGUCAGACAUGAGGAUCACCCAUGUGGAAUAAAUAACGGACAGGAUAUUGAAUAUAGGAUAUACAAGAAGGGUUGAUUGGUG (Eterna round: R96, puzzle: Same State NG 3)	83.6	47.7	73.9	–	–	–
GAGCCAGUCCGAGGAUAUUCAUAAUUAAAUACAUGAGGAUCACCCAUGUAGGCAAGAGAGCCUUGGGAGAAGGCGGACUGGCUC [Xeonanisa>>2] (Eterna round: R96, puzzle: Same State NG 2)	12.8	25	42.9	–	–	–
GCGAGGAUAUGGAGAGGAUCACCCUCUAGAAGGCGCGAAGGCGAGGAUAUGGAGAGGAUCACCCUCUAGAAGGCGCACUUCUCU [pwkr ssNG3 DX 2xF5 +2xFMN.5] (Eterna round: R96, puzzle: Same State NG 3)	222	162	235	–	–	–
GUUACAUGAGGAUCACCCAUGUGUGUGUGGGAGUAAGUGUCUUAGGAUAUCUAUGAUUUAAGUUAAGAGAAGGAAGAUUGUUGU [SS-NG3-LRO01] (Eterna round: R96, puzzle: Same State NG 3)	479	261	395	–	–	–
AGCAAAAUAAGCAAGGAUAUGUAAUUUGGCACAUGAGGAUCACCCAUGUCAAUCCAUUUUUUUGAACAGAAGGUGCAUUUUUUUU [ak first solve] (puzzle: Same State 2)	–	–	–	36.4	–	–
GUUACAUGAGGAUCACCCAUGUAUGUGUGGGAGUAAGUGUCUUAGGAUAUCUGUUAUCUAAUUUAAGAGAAGGAAGAUUGUUGU [JMF's solution 35] (Eterna round: R96, puzzle: Same State NG 3)	162	53.4	87.2	–	–	–
GUUAUACAUGAGGAUCACCCAUGUCAAUGUAGUCGAGGAUAUGGGUAGCUAUGAGGCGUACUAGAAGGCGAGGAGU [JL-ss1-3.16 ViennaUCT mod] (Eterna round: R96, puzzle: Same State 1)	503	246	477	–	–	–
GCCCAUAGUAUAUGGGUACAAGCUUUUUAACAUGAGGAUCACCCAUGUACUCGUCUUAUGUGCAGUCCGUAGACUGC [JL-shm-2.17 Brourd mod] (puzzle: Sensor for hsa-mir-208a)	–	–	–	14	86.4	82.3
GUGGAGGGUUGAGGAUAUUGAUUACAUAUGUUUAACAUGAGGAUCACCCAUGUGGGUUGCGGUUUCGAGAAGGUAGGUUGCUGG [salish99_SSNG2_r04_041] (Eterna round: R96, puzzle: Same State NG 2)	196	79.5	132	–	–	–
GUGGUCAGACAUGAGGAUCACCCAUGUGGAAUAAAUAAGGUUUAGGAUAUGGAAUAUAGGAUAUACCAGAAGGAAGGGUUGGUG (Eterna round: R96, puzzle: Same State NG 3)	–	95.2	–	–	–	–
GUUACAUGAGGAUCACCCAUGUAUGUGUGGGAGUAAGUGUCUUAGGAUAUCUAGUAUUUAAUUAAAGAGAAGGAAGAUUGUUGU [JMF's solution 66] (Eterna round: R96, puzzle: Same State NG 3)	126	74.6	116	–	–	–
GUUAUACAUGAGGAUCACCCAUGUCAAUGUAGUCGAGGAUAUGGGUAGCUAUGAGGCGUACUAGAAGGCGAGGAGU [JL-ss1-3.16 ViennaUCT mod] (puzzle: Same State 1)	–	–	–	90.4	–	–
CGCGGUAAGGAAGGAUAUGGGACGAAAACGUACCUAGAAGGUCCACAUGAGGAUCACCCAUGUACCAAGAAAGCCGCUCAAUUA [Uszabeon] (Eterna round: R96, puzzle: Same State NG 1)	89.8	260	334	–	–	–
GUGCUCGUGUGAGGAUAUGCCGCCGUUUCGGCUGCAGAAGGUGCUACGUUACAUGAGGAUCACCCAUGUCUCUGUUGUUUCGUG [salish99_SSNG1_r04_943] (Eterna round: R96, puzzle: Same State NG 1)	–	17.9	–	–	–	–
GGUAUCGGCACAGGAUAUGCUAUCCUUUGGGUAGCAGAAGGGUGGACAUGAGGAUCACCCAUGUAGGUGCCAGGGCGUGAGCCC [JL SSNG1 1.87] (Eterna round: R96, puzzle: Same State NG 1)	2490	26.3	3550	–	–	–
UUUAGUUGCGCGCAGGAUAUGUAUUAAUAUACAUGAGGAUCACCCAUGUGAGAUCGAAUAGAUCUACAGAAGGGCGAAUCGCGAC [Laonerce - 26] (puzzle: Same State 2)	–	–	–	168	32.9	611

Sequence	apparent KD of MS2 coat protein (input ligand: FMN 200 uM) [nM]	apparent KD of MS2 coat protein [1] [nM]	apparent KD of MS2 coat protein (input ligand: none) [nM]	apparent KD of MS2 coat protein [2] [nM]	apparent KD of MS2 coat protein [3] [nM]	apparent KD of MS2 coat protein [4] [nM]
GUUACAUGAGGAUCACCCAUGUAUGUGUGGGAGUAAGUGUCUUAGGAUAUCUAGUAUUCAAUUUAAGAGAAGGAAGAUUGUUGU [JMF's solution 58] (Eterna round: R96, puzzle: Same State NG 3)	109	64.2	93.9	–	–	–
AGCUAUUAAUCAGGAUAUGGUCACAUGAGGAUCACCCAUGUAUAGAUGAUUAAAUGUGGUCUAAACUAGAAGGGAUUGCUAACA [SameState NG2 #56] (Eterna round: R96, puzzle: Same State NG 2)	414	523	421	–	–	–
UUGCGCUGUCGAGAGGAUAUGCGGUGUUGGACAUGAGGAUCACCCAUGUUAGCGAUUGCUUUACGGUAGAAGGCUCUUCAGCUGC [salish99_ss2_r3_098] (puzzle: Same State 2)	–	–	–	63.5	–	–
AUUGCUUUCGCAGGAUAUGAUGCGAAAAUUGCGUCAGAAGGGUGGAGUCUCUCAUUGCUAGAGGACAUGAGGAUCACCCAUGUC [SameState NG1 #85] (Eterna round: R96, puzzle: Same State NG 1)	188	309	541	–	–	–
UGGCCAGCCUGUGCUGGGCUUUAGCAUGUACAUGAGGAUCACCCAUGUCGUGUACAUGCUUUUUGCUCGUCUUUAAA [Photon Torp-06] (puzzle: Sensor for hsa-mir-208a)	–	–	–	23.1	35.8	125
GCACAUGAGGAUCACCCAUGUGCGCUUGAUUGUCCAAGCGCACAGGAUAUACCUCCAAAUGGGAGGUAGAAGGGUGAAAAGAAA [Ravema] (Eterna round: R96, puzzle: Same State NG 3)	2310	393	347	–	–	–
GAGUAGUUAAAAGGAUAUUGAUUAUUGUAGGAUCAAGAAGGUUUUAACAUGAGGAUCACCCAUGUAGGACUAUAAAUGUGAAAA [Parity 93 - Jieux - Same State NG 1] (Eterna round: R96, puzzle: Same State NG 1)	–	12.5	–	–	–	–
GGAUGAUAGACAGGAUAUUGAUUGUAAUUAGGACAAGAAGGGUCAAUGAUUUAAACGACCAGUUACAUGAGGAUCACCCAUGUU [JR_SSNG1_Sub026] (Eterna round: R96, puzzle: Same State NG 1)	55.7	34	55.3	–	–	–
AGACAUGAGGAUCACCCAUGUAUACACUGUAUCAGUGUAACAUAGGAUAUCCACCGCCAUGCUGUGGAGAAGGAUGAAACGGGC [Matearen] (Eterna round: R96, puzzle: Same State NG 3)	175	111	99.5	–	–	–
UCUUGGUUUUUGCUCGUUUUUUGUGUUGAACAUGAGGAUCACCCAUGUAUUGUACAAUCCGGUUUGAUGAUGGUCCA [JMF 47] (Eterna round: R96, puzzle: Sensor for hsa-mir-208a)	125	55.5	115	–	–	–
GUUACAUGAGGAUCACCCAUGUAUGUGUGGGAGUAAGUGUCUUAGGAUAUCUAUAAUUUAAAUUAAGAGAAGGAAGAUUGUUGU [JMF's solution 10] (Eterna round: R96, puzzle: Same State NG 3)	121	69.4	115	–	–	–
ACAUGAGACAGAGGAUAUGUUGUACCUACAUGUGACAUGAGGAUCACCCAUGUGGUAAGUAUGAUACAGAAGGCUGAGAUAUGU [Equivalance 64 - Jieux - Same State NG 2] (Eterna round: R96, puzzle: Same State NG 2)	15	18.3	24.2	–	–	–
AUGUGUUUGCGAGGAUAUCGUUUGUUGAAGUUACGAGAAGGCGCUCACUUUACAUGAGGAUCACCCAUGUCUUUGAUGCAUGAU [JR_SSNG1_Sub073] (Eterna round: R96, puzzle: Same State NG 1)	46.6	40.2	44.1	–	–	–
GGAUGAUAAAUAGGAUAUUAAUUGUAAUUAGGUUAAGAAGGAUUAAUGAUUUAAACGACCAGUUACAUGAGGAUCACCCAUGUU [JR_SSNG1_Sub088] (Eterna round: R96, puzzle: Same State NG 1)	–	108	–	–	–	–
AACCAGAGAAAACAACUCUGACAUGAGGAUCACCCAUGUACACAGGAUAUCAGCCCGAAAAGGGCUGAGAAGGGUGGCCGAGUG [Beveat] (Eterna round: R96, puzzle: Same State NG 3)	574	29.2	33.9	–	–	–
ACGCAAAAUGGAGGAUAUGGAGCCUUAUUGGCUCCAGAAGGUCAAAACAUGAGGAUCACCCAUGUGCGGUGGUCUAAUGACCAC [Eli NG1ss - 46] (Eterna round: R96, puzzle: Same State NG 1)	41.5	109	172	–	–	–
